Paper PMC10674851, “Discovery and Characterization of a Dual-Function Peptide Derived from Bitter Gourd Seed Protein Using Two Orthogonal Bioassay-Guided Fractionations Coupled with In Silico Analysis” (Pharmaceuticals, 2023)
No end group written: not given here.

Tests used:
[1] = in vivo, cited from earlier work
From the text: Simultaneously, ACE2, a homologue of ACE, counteracts the vasoconstrictor effects by converting Ang-II into Ang 1–7 (a vasodilator). ACE2 also transforms Ang-I into Ang 1–9, and ACE hydrolyzes Ang 1–9 into Ang 1–7, resulting in a vasodilation effect. However, Ang 1–7 has a short half-life of only half an hour in the human body, and i ...

[2] = target: T1, angiotensin-I-converting enzyme (ACE) from rabbit lungs (Oryctolagus cuniculus, UniProt P12822); experiment: ACE inhibitory (ACEI) activity assay, HHL substrate, hippuric acid by RP-HPLC; format: biochemical; details: synthetic AW6, seven logarithmic concentrations, non-linear interpolation; mean ± SD, triplicate
T1 construct: angiotensin-I-converting enzyme (ACE) from rabbit lungs; purchased Sigma-Aldrich Co. (Saint Louis, MO, USA); host or cells: rabbit lung tissue
T1 sequence (P12822 34-1310): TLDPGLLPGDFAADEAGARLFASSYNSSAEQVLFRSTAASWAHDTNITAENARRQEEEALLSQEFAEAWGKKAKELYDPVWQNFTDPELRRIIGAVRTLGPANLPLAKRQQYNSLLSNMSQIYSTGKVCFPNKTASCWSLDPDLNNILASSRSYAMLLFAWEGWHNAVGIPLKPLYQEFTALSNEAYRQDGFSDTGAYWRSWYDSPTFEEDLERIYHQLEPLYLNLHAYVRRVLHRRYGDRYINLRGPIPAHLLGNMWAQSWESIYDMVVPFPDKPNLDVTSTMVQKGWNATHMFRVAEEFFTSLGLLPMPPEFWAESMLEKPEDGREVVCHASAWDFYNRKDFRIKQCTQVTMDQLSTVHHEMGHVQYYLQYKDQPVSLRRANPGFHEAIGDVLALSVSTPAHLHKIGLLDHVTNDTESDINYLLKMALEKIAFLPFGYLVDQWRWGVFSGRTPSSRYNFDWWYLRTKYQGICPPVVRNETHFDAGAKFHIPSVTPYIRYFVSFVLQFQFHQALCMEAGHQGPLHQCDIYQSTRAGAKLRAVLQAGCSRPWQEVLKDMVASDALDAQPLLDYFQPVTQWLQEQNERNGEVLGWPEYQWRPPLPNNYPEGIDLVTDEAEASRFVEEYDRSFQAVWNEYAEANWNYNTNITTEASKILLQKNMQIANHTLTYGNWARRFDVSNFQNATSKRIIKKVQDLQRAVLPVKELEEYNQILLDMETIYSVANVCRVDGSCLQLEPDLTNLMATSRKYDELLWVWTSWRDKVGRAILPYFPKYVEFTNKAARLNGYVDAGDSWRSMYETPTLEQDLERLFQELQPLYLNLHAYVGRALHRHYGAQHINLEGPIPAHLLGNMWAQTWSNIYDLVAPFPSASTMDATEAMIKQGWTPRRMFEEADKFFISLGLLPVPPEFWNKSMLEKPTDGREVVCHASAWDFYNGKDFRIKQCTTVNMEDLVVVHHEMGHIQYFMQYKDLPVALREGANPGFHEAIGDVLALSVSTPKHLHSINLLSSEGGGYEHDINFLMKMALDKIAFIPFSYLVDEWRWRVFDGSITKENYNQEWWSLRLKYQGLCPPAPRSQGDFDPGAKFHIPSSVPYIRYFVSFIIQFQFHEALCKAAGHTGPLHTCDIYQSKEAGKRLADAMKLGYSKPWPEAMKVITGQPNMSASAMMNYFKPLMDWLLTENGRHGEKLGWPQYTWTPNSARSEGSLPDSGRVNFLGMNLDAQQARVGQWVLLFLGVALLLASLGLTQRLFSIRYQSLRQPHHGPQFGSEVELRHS
Procedure: The ACEI activity was studied according to Cushman and Cheung [43], with a few modifications. First, 10 µL of the testing sample was premixed with 30 µL of hippuryl–histidine–leucine (HHL) and incubated at 37 °C for 5 min. Then, 20 µL of ACE (0.05 mU/µL) was added. Afterward, the reaction was held statically at 37 °C for 30 min and continued with shaking at 200 rpm for another 30 min. Then, 60 µL of 1 N hydrogen chloride was used to quench the reaction, and 10 µL of 0.25 µg/µL ferulic acid was mixed for an internal standard. […] The area under the curve of hippuric acid (HA) was observed using UV–Vis RP-HPLC at a wavelength of 228 nm, 1 mL/min steady flow rate, and 15 min of isocratic elution (26% ACN with 0.1% TFA in deionized water). The inhibitory activity of ACE was determined using the following equation:(2) ACE inhibitory activity %=1−HAinhibitor/HAno inhibitor×100%,
The HA(inhibitor) and HA(no inhibitor) were the areas under the curve of the hippuric acid acquired in the presence and absence of an inhibitor. The half-maximal inhibitory concentration of ACE inhibition (ACEI IC50) was calculated using a non-linear interpolation constructed with a minimum of six logarithmic concentrations of the testing sample.

[3] = target: T2, recombinant human dipeptidyl peptidase-IV (DPP4) (Homo sapiens, UniProt P27487); experiment: DPP4 inhibitory (DPP4I) activity assay, GP-pNA substrate, absorbance 405 nm; format: biochemical; details: seven logarithmic concentrations, non-linear interpolation; mean ± SD, triplicate
T2 construct: purchased Sigma-Aldrich Co. (Saint Louis, MO, USA)
T2 sequence (P27487 whole entry): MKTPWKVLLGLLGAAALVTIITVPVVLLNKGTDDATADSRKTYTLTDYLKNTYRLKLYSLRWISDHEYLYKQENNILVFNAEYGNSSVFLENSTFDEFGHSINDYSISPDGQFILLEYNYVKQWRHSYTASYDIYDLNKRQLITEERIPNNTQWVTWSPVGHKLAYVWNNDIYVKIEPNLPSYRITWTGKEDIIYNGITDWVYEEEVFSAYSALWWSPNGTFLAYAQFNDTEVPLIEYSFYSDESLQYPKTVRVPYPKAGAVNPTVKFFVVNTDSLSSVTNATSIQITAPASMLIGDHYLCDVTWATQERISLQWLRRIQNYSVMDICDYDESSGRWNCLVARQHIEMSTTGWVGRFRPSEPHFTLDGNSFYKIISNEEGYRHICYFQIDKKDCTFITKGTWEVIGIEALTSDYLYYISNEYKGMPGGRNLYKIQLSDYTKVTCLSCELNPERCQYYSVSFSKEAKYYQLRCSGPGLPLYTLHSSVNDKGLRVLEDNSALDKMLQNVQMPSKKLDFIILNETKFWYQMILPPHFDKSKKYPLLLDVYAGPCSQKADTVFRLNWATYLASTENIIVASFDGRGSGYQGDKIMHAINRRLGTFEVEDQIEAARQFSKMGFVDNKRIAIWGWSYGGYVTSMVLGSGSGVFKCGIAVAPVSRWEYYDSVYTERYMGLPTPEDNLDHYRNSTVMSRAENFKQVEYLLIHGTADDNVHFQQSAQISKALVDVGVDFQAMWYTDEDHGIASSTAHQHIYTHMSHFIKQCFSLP
Procedure: The DPP4 inhibitory activity was determined as described by Nong, N. T. P. et al., with a few modifications. The testing samples, GP-pNA, linagliptin, and DPP4 were dissolved in 0.1 M Tris-HCl buffer, pH 8.0. Briefly, 25 µL of the testing sample was premixed with 25 µL of 1.6 mM GP-pNA and incubated at 37 °C for 10 min. Then, 50 µL of DPP4 (0.5 U/µL) was added. The reaction was continued for 60 min at 37 °C. The enzymatic reaction was quenched by adding 100 µL of 1 M sodium acetate, pH 4.0. The absorbance of pNA, as a product of the DPP4 and GP-pNA reactions, was monitored using a PowerWave XS (Biotek®, Winooski, VT, USA) 96-well microplate reader at a wavelength of 405nm. DPP4 inhibitory activity was calculated by the following equation:(3) DPP4 inhibitory activity %=1−pNAinhibitor/pNA no inhibitor×100%,
The pNA(inhibitor) and pNA(no inhibitor) were the absorbances of the pNA (λ = 405 nm) acquired in the presence and absence of an inhibitor, respectively. The half-maximal inhibitory concentration of DPP4 inhibition (DPP4I IC50) value was calculated using a non-linear interpolation for at least six logarithmic concentrations of the inhibitor.

IC50 [2] [µM] | IC50 [3] [µM] | Substance | half-life ([1]; human) | time of peak concentration in plasma [1]
 |  | Ang 1–7: vasodilator formed from Ang-II by ACE2 | half an hour | one hour
9.6 ± 0.3 | 145 ± 4.4 | APLVSW [AW6, APLVSW] |  | 
